The labels stand for the following.
T1: SLAMF6 ECD (human, UniProt Q96DU3 22-226)
T1 chain: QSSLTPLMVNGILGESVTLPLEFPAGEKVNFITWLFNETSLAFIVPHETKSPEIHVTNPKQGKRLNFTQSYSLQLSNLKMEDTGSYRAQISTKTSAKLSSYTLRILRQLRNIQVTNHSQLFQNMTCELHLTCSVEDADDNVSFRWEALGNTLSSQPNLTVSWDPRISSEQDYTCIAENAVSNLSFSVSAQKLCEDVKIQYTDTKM

T2: SLAMF4 ECD (human, UniProt Q9BZW8 22-229)
T2 chain: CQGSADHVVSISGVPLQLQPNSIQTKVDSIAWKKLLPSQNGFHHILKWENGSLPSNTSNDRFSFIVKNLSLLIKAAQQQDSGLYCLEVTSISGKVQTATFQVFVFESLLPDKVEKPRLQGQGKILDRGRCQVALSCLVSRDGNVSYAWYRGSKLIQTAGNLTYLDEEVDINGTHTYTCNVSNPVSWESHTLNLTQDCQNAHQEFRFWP

T3: SLAMF3 ECD (human, UniProt Q9HBG7 48-454)
T3 chain: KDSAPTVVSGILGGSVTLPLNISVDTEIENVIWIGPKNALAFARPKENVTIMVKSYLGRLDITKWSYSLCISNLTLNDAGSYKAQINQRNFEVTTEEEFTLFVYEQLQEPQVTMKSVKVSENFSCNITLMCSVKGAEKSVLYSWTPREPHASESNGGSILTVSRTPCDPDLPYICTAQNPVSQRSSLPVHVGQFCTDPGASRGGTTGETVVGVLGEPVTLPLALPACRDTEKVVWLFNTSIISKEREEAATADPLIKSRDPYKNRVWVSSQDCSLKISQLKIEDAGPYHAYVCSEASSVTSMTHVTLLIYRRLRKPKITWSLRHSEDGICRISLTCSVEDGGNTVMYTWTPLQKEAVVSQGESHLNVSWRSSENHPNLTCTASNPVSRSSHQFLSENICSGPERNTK

T4: SLAMF7 ECD (human, UniProt Q9NQ25 23-226)
T4 chain: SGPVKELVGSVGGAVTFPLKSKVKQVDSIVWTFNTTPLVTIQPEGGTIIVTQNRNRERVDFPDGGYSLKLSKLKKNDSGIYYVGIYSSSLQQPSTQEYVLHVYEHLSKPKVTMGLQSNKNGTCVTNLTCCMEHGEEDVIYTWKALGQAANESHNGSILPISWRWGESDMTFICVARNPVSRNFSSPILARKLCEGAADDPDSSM

T5: SLAMF1 ECD (human, UniProt Q13291 21-237)
T5 chain: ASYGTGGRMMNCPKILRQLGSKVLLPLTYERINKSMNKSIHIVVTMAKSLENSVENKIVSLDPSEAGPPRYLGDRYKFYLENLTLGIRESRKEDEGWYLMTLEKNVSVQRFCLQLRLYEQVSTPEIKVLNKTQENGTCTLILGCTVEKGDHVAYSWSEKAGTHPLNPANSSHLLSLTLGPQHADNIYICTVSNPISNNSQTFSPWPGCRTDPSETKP

T6: SLAMF5 ECD (human, UniProt Q9UIB8 22-225)
T6 chain: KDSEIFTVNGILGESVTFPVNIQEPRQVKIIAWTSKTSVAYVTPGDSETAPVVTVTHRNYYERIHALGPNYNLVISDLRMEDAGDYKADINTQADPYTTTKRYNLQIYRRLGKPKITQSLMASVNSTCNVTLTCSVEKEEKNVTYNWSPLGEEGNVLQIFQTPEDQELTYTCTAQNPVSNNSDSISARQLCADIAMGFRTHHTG

B1: HAdV-B55 CR1β (Fc fusion)
chain: QTVVSIPLGHNYTLIGPPITSEVIWTKLGSVDYFDIICNKTKPIIVTCNIQNLTLINVSKVYSGYYYGYDRYSSQYRNYLVRVTQSKTTKMPNMAEIRSDDNSLETFTSSTTPDEKNIPDS
B2: HAdV-D47 E3/49K (Fc fusion)
chain: EAETVIVDVKSGTNHTLEGPRKTPVQWYGGADFIMYCNGSKIHHKELNHTCSIQNITLTFINRTHHGTYYGFASDNQNSKVYHVRVDLEPPRPRATLAPPQDITIKYGSNRTLQGPNVTPVSWYDGEGNRFCDGDEIDHPELNHTCNAQNLTLLFVNETHERTYYGVSGDWKQRNEYDVTVIKTQNHKNAMQQKVEQKVEQKPSKRPKQKTLQTTIQVTIPIGSNYTLVGPSPPVSWHTTKNGLTELCNGNPILRHTCDGQNITLINVNATFEADYYGSNNNSESKHYRVKVFKQRKDQALLFRPLTTKGTTGGSTVNEQFALQQGNDKTNQNDEQIPSTT
B3: HAdV-A18 CR1β (Fc fusion)
chain: QTAERPLKVVAEAGHNVTLPHLLPGFNKTGHVTWLIEIPDYGSAPSNKFVFSGQKLCEFASKNLTWSFPQLIFKCDNYDITLFWLKIENSAIYNVKNTIEATESNIYYQLTVIQINPPNCIITSKYLTEDYCHITINCTNSRYPNKVIFNNVTRSYYGYAKGSSTLPNYFTTSFNVSGITKTFKHNYPFSELCTYPSSENFYNSKETVST
B4: HAdV-D9 E3/49K (Fc fusion)
chain: GIINLNVSWGMNLTLVGPSDLPVTWYDGKGMQFCDGNTIKNPQIKHSCNQQNLTLLNADKSHERTYLGYRHDSKGKVDYKVTVIPPPPATRKPLSEPHYVTVTMGDNITLVGPSDLPVTWYDGEGNKFCDGEKVEHAEFNHTCNIQNLTLLFVNLTHNGAYIGYNKDGSDRELYEVSVKTLFQNGAGQSKVEQGNKGKPNTAQSGGKKTKTEHRNQSPKRKSTNNLQPTQLYVRPFTNVSLTGPPNGKVTWYDGELNDPCEQKYKLRTFCNQQNLTLINVSSTYDGIYYGTDEKDKANRYRIKVNTTNHKTVKIKPHTREPPAVQEKQFELQDAETDENESKIPSAT
B5: HAdV-D30 E3/49K (Fc fusion)
chain: ADPILVSVDWGKNLKLEGPKETPVEWWGGKNIQQLCVGNQTKHKELRHTCNMQNITLLSVNTSFNGDYFGFKNDNSGMKHYKVTVIPPKPTTRKPLPPPHYVNATMGQNLTLVGPANIPVTWLSEFGTLCEGKKILHEELNHTCNEQNLTLLFVNMTHNGPYFGFGKDNVDREQYEVSIISLFKVGAGQKKIDKGQRAEEKTKFNSGDLGRKQSRPKKKDIVDEVQVKSGNNQTLIGPPGKNVDWIKLSSGNDAVVTLCKGDTWIKHTCNGPNVTLINVTKPYEGSYYGSSDDGSSHYKVTVYDLYKSNKSKSKVKPYTTKGTTVNATNANGLKNALQQDGESENDQESKIPSAT
B6: HAdV-D51 E3/49K (Fc fusion)
chain: LLESKVVKIPYGSTYVLVGPRDPPVQWFGGGDFTMFCNGSKTHLQNIRHTCNEQNLTLLSVGYGHRGDYYGFRHDNTGRKHYKVIIEAPPPVTRKPLSEIKYVNVTMGQNLTLSGPPGTPVTWHGEGHKLCEGKNVFYRELNHTCTEKDLILLFVNRTHNGPYIGYNKEGTDREHYEVSVLDLMPIAGQGLDSKNKEQKIPPKRKSKDKVQEVNFPTGTDQTLIGPPGQKIDWHVSSNDGQFKKLCETKDGKHSCHGRNITIFNISRADEGSYYGSSHDGSSHYKVTVYDKSSFGKAKIKIDPYTTKGTTTENYEFELQQGNDESDDQKQIPSTT
B7: HAdV-F41 CR1β (Fc fusion)
chain: AVPEKTLNNLVRVYALVGTNLSLDSMKTPQIDELTSLSWIKQEDNPNKNLQSFFFIGQKLCEVTKDKITVFNYYPLEFSCANVTLYLYNLKTDDSGLYNGKAHTKELEHNTYVRLYVIDIPPPKCDITSRYLGIQATGEDYCLIEINCTNSKYPAVVKFNGRQSNFYHYVSENGNKELPNFYETHITVNGTHKSFHFNYPFNDLCQTTSALQYNDNVQ
B8: HAdV-B1 CR1γ (Fc fusion)
chain: RSHLTVPVGSTCTLQGPQEGYVTWWRIYDNGGFARPCDQPGTKFSCNGRDLTIINITSNEQGFYYGTNYKNSLDYNIIVVPATTSAPRKSTFSSSSAKASTIPKTASAMLKLPKIALSNSTAAPNTIPKST
B9: HAdV-D39 E3/49K (Fc fusion)
chain: KIDNEDVIGHWGKNITLVGPPEKPIEWHGPRVQLCDGSKILHPEFNHTCNEQNLTLIFLNNSFNGKYYGIRKDGFGMKQYTLKVIAPKASTRRPLSPPQQIDVRMGQNVTLVGPVDTPVNWHGPKHELCRGSQVIHPEVNHTCNEQNLTLLFVNYTFWGAYLGFNRYGTDRVHYEVTIIDGFKNAGQQKDETGQHNPSNKDRPNPKVKNPQRTKNTHKTNTQNKKDIEKDFRKGTNQTLVGPPGSKVDWYEGKNGDLVKLCDGKSGLKVSCNDQNITLINVNETYSGTYYGSNDEDHRQYKVTVYTIPRNETVKIQPHTTKGTTGGSTVNEQFALQQDNDRTNQNDEQIPSTT
B10: CD45RO ECD (domain or fragment)
chain: QSPTPSPTDAYLNASETTTLSPSGSAVISTTTIATTPSKPTCDEKYANITVDYLYNKETKLFTAKLNVNENVECGNNTCTNNEVHNLTECKNASVSISHNSCTAPDKTLILDVPPGVEKFQLHDCTQVEKADTTICLKWKNIETFTCDTQNITYRFQCGNMIFDNKEIKLENLEPEHEYKCDSEILYNNHKFTNASKIIKTDFGSPGEPQIIFCRSEAAHQGVITWNPPQRSFHNFTLCYIKETEKDCLNLDKNLIKYDLQNLKPYTKYVLSLHAYIIAKVQRNGSAAMCHFTTKSAPPSQVWNMTVSMTSDNSMHVKCRPPRDRNGPHERYHLEVEAGNTLVRNESHKNCDFRVKDLQYSTDYTFKAYFHNGDYPGEPFILHHSTSYNSK
B11: HAdV-A18 CR1α (Fc fusion)
chain: LSPEEEPNCRPPLTNIKVVLSTTHVTLQCKFFSTQLTWTFNGKNVAEANLKYHINKENITLHSPIHLGYYRCFATPCVQAFFLAPVINPRPATTAQPEKITKLISTAIATTATKGTEEIIYFSNFTTNLLLNCSCSNSLISWFANNTFCKAFFQGTTLYSAKLELCNTSTPSNLTLLPPFVAGRYFCIGAGGHPCQRHWKLVFRPTLVLPTSADPTLSPTPNF

Targets include SLAMF8 ECD (human, UniProt Q9P0V8 23-233); HAdV-D53 E3/49K (human adenovirus D53); HAdV-D23 E3/49K (human adenovirus D23).
What all share (assay): SPR
In general terms: SPR reads the build-up and loss of mass on a sensor chip optically.

A further assay concerns the target T1, SLAMF6 ECD.
The assay “CD45RO ECD” addresses B10.
Another assay concerns the target T2, SLAMF4 ECD.
The target in another assay is T3, SLAMF3 ECD.
The target of a further assay is T4, SLAMF7 ECD.
The target of the next assay is T5, SLAMF1 ECD.
A further assay concerns the target T6, SLAMF5 ECD.

Chain of SLAMF8 ECD (Q9P0V8 23-233): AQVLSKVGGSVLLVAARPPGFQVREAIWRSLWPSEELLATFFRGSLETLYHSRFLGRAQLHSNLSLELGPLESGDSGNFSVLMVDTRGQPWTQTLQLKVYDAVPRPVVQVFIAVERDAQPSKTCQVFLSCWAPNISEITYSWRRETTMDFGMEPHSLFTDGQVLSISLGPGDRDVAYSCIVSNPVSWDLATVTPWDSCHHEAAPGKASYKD

On to B1, for which the Kd (as a rule, the equilibrium constant for the complex coming apart) in the assay with SLAMF6 ECD is 13 nM.
Take B2: the Kd with CD45RO ECD turned out to be 0.01 nM.
As to B3, binding with SLAMF4 ECD was characterised by a dissociation constant (Kd) of 62 nM.
As for B4, binding in the assay with CD45RO ECD was put at a Kd of 0.08 nM.
B5: the dissociation constant (Kd) in the assay with CD45RO ECD is 0.19 nM; with SLAMF3 ECD it was 18 nM.
The molecule B6 displayed a Kd in the assay with CD45RO ECD of 0.06 nM.
In the assay with SLAMF4 ECD, B7 showed a Kd of 44 nM.
As for B8, the Kd worked out at 1.5 nM in the assay with SLAMF7 ECD; 215 nM with SLAMF1 ECD; 60 nM with SLAMF8 ECD; 86 nM with SLAMF3 ECD; 280 nM with SLAMF4 ECD.
As to B9, the Kd with CD45RO ECD worked out at 0.39 nM.
For the molecule B10, the Kd is 0.21 nM with HAdV-D53 E3/49K and 0.18 nM in the assay with HAdV-D23 E3/49K.
As to B11, the values for the Kd with SLAMF5 ECD, in the assay with SLAMF7 ECD and with SLAMF6 ECD were 2.1 nM, 137 nM and 631 nM, respectively.

The values are drawn from publication PMC4858740 (2016).
